Results: patent US12454527B2, “Conjugate monomethyl auristatin E to obtain a composition for treatment of prostate cancer” (priority 2019, dated 2025)
Values joined by “and” are separate entries in the source; they are usually repeats but may differ in a detail not shown here. Identical values can stand only once. Like-named read-outs stand apart in the source and are kept apart here. Starred links: 1 amine or outer side, 2 acyl side, 3 side chain; linkers in the order of their positions; H or OH if unused. Non-standard residues stand in square brackets, D forms with d. Residues, ends and D or L forms follow the SMILES beside them. ξ: configuration not given here. *: point of attachment. GluureaLys(ε-3-ClBenzyl) = O=C(O)CC[C@H](NC(=O)N[C@@H](CCCCN(Cc1cccc(Cl)c1)*)C(=O)O)C(=O)O; Dolaproine = CO[C@@H]([C@@H]1CCCN1)[C@@H](C)C(=O)O; Dil = CC[C@H](C)[C@H](NC)[C@@H](CC(=O)O)OC; X1 = O=C(CCCc1cn(CCCN[*:1])nn1)[*:2]; PABC = O=C(OCc1ccc(N[*:1])cc1)[*:2]; X2 = C[C@@H](N*)[C@@H](O)c1ccccc1; Cit = NC(=O)NCCC[C@H](N)C(=O)O; Suc = O=C(CCC(=O)[*:2])[*:1]; NMeV = CN[C@H](C(=O)O)C(C)C; ξV = CC(C)C(N)C(=O)O; Ahx = NCCCCCC(=O)O

What was measured:
[1] = Chronic toxicity study, intravenous once every 3 weeks, rabbits; format: in vivo
Source text: (§1) Chronic toxicity study of Conjugate (1) product on Rats and rabbits.
(§2) • 1. Conjugate (I). • 2. Solubilizer Pluronic F127—in the amount, five-fold greater than the conjugate amount by weight. • 3. Diluent—Haemodes infusion solution. • 4. Dimethyl sulfoxide—in the amount of 5% of the prepared volume.
(§3) A 1 00 white ° inbred mature male rats about 2 months old with a body weight of 190-210 g and 60 sexually mature male rabbits of the Soviet Chinchilla breed about 2 months old with a body weight of […] were involved in the experiment.
(§4) The study design determined the intravenous administration of the test drugs once every 3 weeks for 3 months (a total of 4 injections) for the experiment of chronic toxicity determination. The local irritant effect of the products within intravenous administration will be studied together with the chronic toxicity study.
(§5) Each animal received the intravenous injection of the test drug or the reference drug in a volume not exceeding the acceptable volume for a single injection of 2 mL for rats and 20 mL for rabbits. The products were replaced with a Pluronic solution with DMSO in Haemodes in the control group of animals. The duration of observation for laboratory animals was 4 weeks (intermediate stage).
(§6) Apparent signs of intoxication were evaluated daily. During the study, integral indicators of animal health were recorded (see Tables 15. 16, 17).

[2] = Assessment of the tolerability in the 22Rv1 xenograft study (body weight, survival, general health); format: in vivo, mice; settings: 0.3 mg/kg; for Body weight of mice (M ± m): in g (unit assumed)
[3] = Chronic toxicity study, intravenous once every 3 weeks, rats; format: in vivo; settings: for Necropsy / Signs of intoxication: male rats
Source text: as §1, §2, §3, §4, §5, §6

[4] = Pharmacokinetics in plasma of rats after a single injection; format: in vivo; settings: for level at 0.5 h: 0.50 hour
Procedure: The pharmacokinetics study for the Conjugate (I) product in plasma of rabbits and rats after a single injection.
The leporids and rodents are the standard targets for preclinical studies of potential drug products as well as determining the pharmacokinetic parameters. The rabbits and rats are recommended as test systems to study pharmacokinetic properties of pharmaceutical products by the regulatory documents (FIG. 7, FIG. 8).
This study was performed on healthy awake white outbred mature male rats aged about 3 months with body weight of 190-210 g. […] The pharmacokinetic data, determined from this number of test animals, are sufficient to obtain the primary quantitative characteristics of test product distribution and elimination and the calculation of descriptive statistics parameters.
• 1. Conjugate (1) • 2. Solubilizer Pluronic F127—in the amount, five-fold greater than the conjugate amount by weight. • 3, Diluent—Haemodes infusion solution. • Dimethyl sulfoxide—in the amount of 5% of the prepared volume. • Rabbit experiment (see Tables 5, 6), • Rat experiment (see Tables 7, 8).

[5] = male rabbits, group 7, 81 μg/kg intravenously 1 time in 3 weeks
[6] = male rabbits, group 8, 102 μg/kg intravenously 1 time in 3 weeks
[7] = group 2, 150 μg/kg intravenously 1 time in 3 weeks
[8] = group 3, 188 μg/kg intravenously 1 time in 3 weeks
[9] = male, white outbred, rat, plasma, rats N=6, read-out: Concentration in blood plasma, Geometr. mean
[10] = male, white outbred, rat, plasma, rats N=6, read-out: Concentration in blood plasma, Mean value
[11] = male, white outbred, rat, plasma, rats N=6, read-out: Concentration in blood plasma, Median
[12] = male, white outbred, rat, plasma, rats, read-out: Concentration in blood plasma (individual animals)

For `CC[C@H](C)[C@@H]([C@@H](CC(=O)N1CCC[C@H]1[C@H](OC)[C@@H](C)C(=O)N[C@H](C)[C@@H](O)c1ccccc1)OC)N(C)C(=O)[C@@H](NC(=O)[C@H](C(C)C)N(C)C(=O)OCc1ccc(NC(=O)[C@H](CCCNC(N)=O)NC(=O)C(NC(=O)CCCc2cn(CCCNC(=O)[C@H](Cc3ccc(O)cc3)NC(=O)[C@H](Cc3ccccc3)NC(=O)CCC(=O)NCCCCCC(=O)N(CCCC[C@H](NC(=O)N[C@@H](CCC(=O)O)C(=O)O)C(=O)O)Cc3cccc(Cl)c3)nn2)C(C)C)cc1)C(C)C` (some centres unmarked) [Conjugate (I)] ({GluureaLys(ε-3-ClBenzyl)-Ahx-Suc}-FY[X1][ξV][Cit][PABC][NMeV]V[Dil][Dolaproine]-X2), the Necropsy [1, 5] was “None”, the Signs of intoxication [1, 5] was “No signs of intoxication” and the Necropsy [1, 6] was “None”. The Signs of intoxication [1, 6] was “No signs of intoxication”, the Necropsy ([1]; male rabbits, group 9, 122 μg/kg intravenously 1 time in 3 weeks) was “None” and the “Signs of intoxication: the intake of food and water” value ([1]; male rabbits, group 9, 122 μg/kg, after administration) was “decreased”. The “Main observed toxic effect” value ([1]; rabbits, chronic) was “decreased body weight gain”, the “Chronic toxicity (overall)” value ([1]; rabbits, i.v. once every 3 weeks, intermediate stage 4 weeks) was “moderate toxicity” and the “Body weight of mice (M ± m)” value ([2]; day 0 after treatment initiated) was 22.2 ± 0.53. The “Body weight of mice (M ± m)” value ([2]; day 2) was 21.2 ± 0.36, the “Body weight of mice (M ± m)” value ([2]; day 4) was 18.0 ± 0.48 and the “Body weight of mice (M ± m)” value ([2]; day 6) was 19.2 ± 0.35. The “Body weight of mice (M ± m)” value ([2]; day 8) was 19.4 ± 0.4, the Death cases ([2]; mice) was “no death cases” and the Survival ([2]; mice, whole experiment) was 100%. The “General health and mice behavior” value ([2]; within and after intake) was “satisfactory without any pathologic changes and gastrointestinal and any other toxicity”, the Necropsy [3, 7] was “None” and the Signs of intoxication [3, 7] was “No signs of intoxication”. For the same compound, the Necropsy [3, 8] was “None”, the Signs of intoxication [3, 8] was “No signs of intoxication” and the Necropsy ([3]; group 4, 225 μg/kg intravenously 1 time in 3 weeks) was “None”. The Signs of intoxication ([3]; group 4, 225 μg/kg, 2-3 days after the first administration, all animals, finishing on days 6-7) was “group developed diarrhea finishing on”, the Signs of intoxication ([3]; group 4, 225 μg/kg, 2-3 days after the second administration) was “animals showed diarrhea” and the “Main observed toxic effect” value ([3]; rats, chronic) was “decreased body weight gain”. For the same compound, the “Rat excretory system: urine volume” value ([3]; rats, chronic) was “reliable decreased urine volume”, the “Chronic toxicity (overall)” value ([3]; rats, i.v. once every 3 weeks, intermediate stage 4 weeks) was “moderate toxicity” and the half-life ([4]; male, white outbred, rat, plasma, intravenous, 1.5 mg/kg, rats, individual animals) was 4.11 h. For the same compound, the MRT last ([4]; male, white outbred, rat, plasma, intravenous, 1.5 mg/kg, rats, individual animals, read-out: MRT 0-t) was 3.98 h, the level at 0.08 h [4, 9] was 19000 ng/mL and the level at 0.08 h [4, 10] was 26100 ng/mL. For the same compound, the level at 0.08 h [4, 11] was 19100 ng/mL, the level at 0.25 h [4, 9] was 17000 ng/mL and the level at 0.25 h [4, 10] was 19900 ng/mL. It also gave a level at 0.25 h [4, 11] of 18000 ng/mL, a level at 0.5 h [4, 9] of 16200 ng/mL and a level at 0.5 h [4, 10] of 18000 ng/mL. It also gave a level at 0.5 h [4, 11] of 14300 ng/mL, a level at 1 h [4, 9] of 13400 ng/mL and a level at 1 h [4, 10] of 15200 ng/mL. The level at 1 h [4, 11] was 12500 ng/mL, the level at 1.5 h ([4]; male, white outbred, rat, plasma, rats N=6, 1.50 hour, read-out: Concentration in blood plasma, Geometr. mean) was 10700 ng/mL and the level at 1.5 h ([4]; male, white outbred, rat, plasma, rats N=6, 1.50 hour, read-out: Concentration in blood plasma, Mean value) was 11600 ng/mL. For the same compound, the level at 1.5 h ([4]; male, white outbred, rat, plasma, rats N=6, 1.50 hour, read-out: Concentration in blood plasma, Median) was 10700 ng/mL, the level at 2 h [4, 9] was 10900 ng/mL and the level at 2 h [4, 10] was 11500 ng/mL. The level at 2 h [4, 11] was 10500 ng/mL, the level at 3 h [4, 9] was 7480 ng/mL and the level at 3 h [4, 10] was 7680 ng/mL. The level at 3 h [4, 11] was 7470 ng/mL, the level at 4 h ([4]; male, white outbred, rat, plasma, rats N=6, 4.00 hour, read-out: Concentration in blood plasma, Geometr. mean) was 5730 ng/mL and the level at 4 h ([4]; male, white outbred, rat, plasma, rats N=6, 4.00 hour, read-out: Concentration in blood plasma, Mean value) was 5860 ng/mL. It also gave a level at 4 h ([4]; male, white outbred, rat, plasma, rats N=6, 4.00 hour, read-out: Concentration in blood plasma, Median) of 5840 ng/mL, a level at 6 h ([4]; male, white outbred, rat, plasma, rats N=6, 6.00 hour, read-out: Concentration in blood plasma, Geometr. mean) of 4390 ng/mL and a level at 6 h ([4]; male, white outbred, rat, plasma, rats N=6, 6.00 hour, read-out: Concentration in blood plasma, Mean value) of 4500 ng/mL. For the same compound, the level at 6 h ([4]; male, white outbred, rat, plasma, rats N=6, 6.00 hour, read-out: Concentration in blood plasma, Median) was 4240 ng/mL, the level at 8 h [4, 9] was 3260 ng/mL and the level at 8 h [4, 10] was 3350 ng/mL. The level at 8 h [4, 11] was 3190 ng/mL, the level at 10 h [4, 9] was 2300 ng/mL and the level at 10 h [4, 10] was 2370 ng/mL. It also gave a level at 10 h [4, 11] of 2090 ng/mL, a level at 12 h [4, 9] of 1760 ng/mL and a level at 12 h [4, 10] of 1820 ng/mL. For the same compound, the level at 12 h [4, 11] was 1620 ng/mL, the level at 8 h [4, 12] was 2620 ng/mL and the level at 10 h [4, 12] was 2000 ng/mL. The “Concentration in blood plasma (individual animals)” value (“Concentration in blood plasma” below) ([4]; rats, 1.50 hour) was 8007 ng/mL, the “Concentration in blood plasma” value ([4]; rats, 4.00 hour) was 5834 ng/mL and 5880 ng/mL and the “Concentration in blood plasma” value ([4]; rats, 6.00 hour) was 4247 ng/mL. The AUC0-t ([4]; rats, individual animals) was 60334 ng·h/mL and 45653 ng·h/mL and 95993 ng·h/mL and 110564 ng·h/mL and 83377 ng·h/mL and 57819 ng·h/mL, the “AUC0-∞” value ([4]; rats, individual animals) was 69475 ng·h/mL and 54945 ng·h/mL and 115670 ng·h/mL and 121598 ng·h/mL and 96420 ng·h/mL and 69132 ng·h/mL and the C0 ([4]; rats, individual animals) was 14307 ng/mL and 5351 ng/mL and 25202 ng/mL and 96531 ng/mL and 27501 ng/mL and 15195 ng/mL. The T1/2 ([4]; rats, individual animals) was 5.10 h and 5.00 h and 4.49 h and 4.13 h and 5.14 h and the Vd ([4]; rats, individual animals) was 0.12816 L/kg and 0.20101 L/kg and 0.09361 L/kg and 0.07983 L/kg and 0.09261 L/kg and 0.16076 L/kg.
